According to the nanobody polyreactivity screen of Harvey et al. (2022):

experiment: yeast display, Sf9 membrane polyspecificity reagent, FACS + sequencing; frameworks hold sequencing errors
Method in brief: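 Sorting gates, low and high (top ~1%), were placed on anti-HA fluorescence to track expression and on streptavidin fluorescence to track reagent binding. A clone's polyreactivity label is taken from the gate it came out of. The reagent was 10% biotinylated, detergent-solubilized Sf9 membrane, applied for 1 hour at 4 °C to galactose-induced yeast display cells.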

Row | Sequence | polyreactivity (PSR sort gate)
1 | QVQLVESGGGLVQAGGSLRLSCAASGIIFKDYAMGWYRQAPGKERELVAAISRGGSTYYADSVKGRFTISRDNAKNTVYLQMNSLKPEDTAVYYCAAAYTAPYYRFGYWGQGTQVTVSS | high polyreactivity
2 | QVQLVESGGGLVQAGGSLRLSCAASGIIFKRYTMGWYRQAPGKERELVAAITNRGGTYYADSVKGRFTISRDNAKNTVYLQMNSLKPEDTAVYYCAARYYWIDFKFGGPRDYWGQGTQVTVSS | high polyreactivity
3 | QVQLVESGGGLVQAGGSLRLSCAASGIIFLDNARGWYRQAPGKERELVAAYADSVKGRFTISRDNAKNTVYLQMNSLKPEDTAVYYCNAGWFRNYGFSIVTYDYWGHGTQVTVSS | low polyreactivity
4 | QVQLVESGGGLVQAGGSLRLSCAASGIIFLHYAMGWYRQAPGKEREFVAAISWSGGSTHYADSVKGRFTISRDNAKNTVYLQMNSLKPEDTAVYYCAAYTFYSYDYWGQGTQVTVSS | high polyreactivity
5 | QVQLVESGGGLVQAGGSLRLSCAASGIIFNTYAMGWYRQAPGKERELVAAISSSGGRTYYADSVKGRFTISRDHAKNTVYLQMNSLTPEDTAVYNCNKVQNRGPRTNARKFDYWGQGTQVTVSS | high polyreactivity
6 | QVQLVESGGGLVQAGGSLRLSCAASGIIFPFYAMGWYRQAPGKERELVAAITSGDDTYYADSVKGRFTISRDNAKNTVYLQMNSLKPEDTAVYYCNKRLYIAGYWPQLYYIMDYWGQGTQVTVSS | low polyreactivity
7 | QVQLVESGGGLVQAGGSLRLSCAASGIIFPFYAMGWYRQAPGKERELVAAITSGDDTYYADSVKGRFTISRDNAKNTVYLQMNSLKPEVTAVYYCNKRLYIAGYWPQLYYIMDYWGQGTQVTVSS | low polyreactivity
8 | QVQLVESGGGLVQAGGSLRLSCAASGIIFPINAMGWYRPAPGKERELVAGIDESGGGTYYADSVKGRFTISRDNAKNTLYLQMNSLKPEDTAVYYCAAVTLAPRAYDYWGQGTEVTVSS | low polyreactivity
9 | QVQLVESGGGLVQAGGSLRLSCAASGIIFPVYDMGWYRQAPGKERELVASITDSGGSTSYADSVKGRFTISRDNAKNTVYLQMNSLKPEDTAVYYCAVTDSDTNYYGYLSYDYWGQGTQVTVSS | low polyreactivity
10 | QVQLVESGGGLVQAGGSLRLSCAASGIIFPYSAMGWYRQAPGKERELVAAITSIDASTYYADSVKRRFTISRDNAKNTVYLHMNSLKPEDTAVYYCNATVFNLVLEYNYWGQGTQVTVSS | low polyreactivity
11 | QVQLVESGGGLVQAGGSLRLSCAASGIIFQKYAMGWYRQEPGKERELVDAITRRGGSTYYADSVKGRFTISRDNAKNTVYLQMNSLKPEDTAVYYCAVQLRRHVDMDYWGQGTQVTVSS | high polyreactivity
12 | QVQLVESGGGLVQAGGSLRLSCAASGIIFQNYDMGWYRQAPGKARELVAAITGSGGSTYYADSVKGRFTISRDNAKNTVYLQMNSLKPEDTAVYYCNAVWEYYGKSDYWGQGTQVTVSS | low polyreactivity
13 | QVQLVESGGGLVQAGGSLRLSCAASGIIFQQYAMGWYRQAPGKERELVAAITYSGDGTYYADSVKGRFTISRDNAKNTVYLQMNSLKPEDTAVYYCAADVGYFKSDYWGQGTQVTVSS | low polyreactivity
14 | QVQLVESGGGLVQAGGSLRLSCAASGIIFQRNDMGWYRQAPGKERELVANIRDGGITYADSVKGRFTISRDNAKNTVYLQMNRLKPEDTAVYYCARDDTSPGYGDQSSNAAYYYWGQGTQVTVSS | low polyreactivity
15 | QVQLVESGGGLVQAGGSLRLSCAASGIIFQSYTMGWYRQAPGKERELVAAIDSGGSTYYADSVKGRFTISRDNAKNTVYLQMNSLKPEDTAVYYCAAEPDTYWYTYDYWGQGTQVTVSS | low polyreactivity
16 | QVQLVESGGGLVQAGGSLRLSCAASGIIFRANAMGWYRQAPGKERELVAAISRRGGSTYYADSVKGRFTISRDNAKNTVFLQMNSLKPEDTAVYYCAADGKNYPVGYDYWGQGTQVTVSS | high polyreactivity
17 | QVQLVESGGGLVQAGGSLRLSCAASGIIFRDNDMGWYRQAPGKERELVASISDSGGSTYYADSVKGRFTISRDNAKNTVYLQMNSLKPEDTAVYYCAAPYLSLYWYDYWGQGTQVTVSS | low polyreactivity
18 | QVQLVESGGGLVQAGGSLRLSCAASGIIFREYAMGWYRQAPGKERELVAAISKSGGSTYYADSVKGRFTISRDNAKNTVYLQMNSLKPEDTAVYYCAARLGTFSIPMYYWGQGTQVTVSS | high polyreactivity
19 | QVQLVESGGGLVQAGGSLRLSCAASGIIFRGYAMGRNRHAPGKERELVARISTSGGSTYYADSVKGRFTISRDNAKNTVYLQMNSLKPEDTAVYYCAATRSFLTSWYYRSTSTRDYWGQGTQVTVSS | high polyreactivity
20 | QVQLVESGGGLVQAGGSLRLSCAASGIIFRGYAMGWDRQAPGKERELVARISITGGRTYYADSVKGRFTLSRDNAKNTVYLQMNSLKPEDTAVYYCAAGKYVRTVRYDYWGQGPQVTVSS | high polyreactivity
21 | QVQLVESGGGLVQAGGSLRLSCAASGIIFRGYAMGWYRQAPGKERELVAAITYSGDSTYYADSVKGRFTSSRDNAKNTVYLQMNSLKPEESAVYYCNADVVDGGLAYDYWGQGTQVSVSS | low polyreactivity
22 | QVQLVESGGGLVQAGGSLRLSCAASGIIFRKYAMGWYRQAPGKERELVAAISWRGGSTYYADSVKGRFTISRDNAKNTVYLQMNSLKPEDTAVYYCAAVAQITGYDYWGQGTQVTVSS | high polyreactivity

Row | Sequence | polyreactivity (PSR sort gate)
23 | QVQLVESGGGLVQAGGSLRLSCAASGIIFRLNAMGWYRQAPGKERELVAAIRRRGGSTYYADSVKGRFTISRDKAKNTVYLQMNSLKPEDTAVYYCAKDPHGSDFGYWGQGTQVTVSS | low polyreactivity
24 | QVQLVESGGGLVQAGGSLRLSCAASGIIFRLYAMGWYRQAPGKERELVAAISYRGGSTYYADSVKGRFTISRDNAKNTVYLQMNSLKPEDTAVYYCAARNPRYSFYYWGQGTQVTVSS | high polyreactivity
25 | QVQLVESGGGLVQAGGSLRLSCAASGIIFRNNAMGWYRQAPGKEREFVARISKRGGSTYYADSVKGRFTISRDNAKNTVYLQMNSLKPEDTAVYYCAKGYGSGSYLYDYWGQGTQVTVSS | high polyreactivity
26 | QVQLVESGGGLVQAGGSLRLSCAASGIIFRNYAMGWYRQAPGKERELVATITGDGGSTYYADSVKGRFTISRDNAKNTVYLQMNSLKPEDTAVDYCAADRPYAGRYWKGYHSALYDYWGQGTQVTVSS | low polyreactivity
27 | QVQLVESGGGLVQAGGSLRLSCAASGIIFRPYTMGWYRQAPGKERELVAAISQSGGRTYYADSVKGRFTISRDNAKNTVYLQMNSLKPEDTAVYYCNVLGSYSYYGGNDLWYYYWGQGTQVTVSS | high polyreactivity
28 | QVQLVESGGGLVQAGGSLRLSCAASGIIFRRYAMGWSRQAPGKERELVAAITHRGSTYYADSVKGRFTISRDNAKNTVYLQMNSLKPEDTAVYYCAADGFTRWGRYDYWGQGTQVTVSS | high polyreactivity
29 | QVQLVESGGGLVQAGGSLRLSCAASGIIFRRYAMGWYRQAPGKEREFVAAIRYTGGGTYYADSVKGRFTISRDNAKNTVYFQMNSLKPEDTAVYYCAASPWSRGSRWRPFDYWGQGTQVTVSS | high polyreactivity
30 | QVQLVESGGGLVQAGGSLRLSCAASGIIFRSYAMGWYRQAPGKERELVAAITGGGTTNYADSVKGRFTISRDNAKNTVYLQMNSLKPEDTAVYYCNAGLDWFWFNEMDYWGQGTQVTGSS | low polyreactivity
31 | QVQLVESGGGLVQAGGSLRLSCAASGIIFRTNAMGWYRQAPGKEREFVAAISAGGTRTYYADSVKGRFTISRDNAKNTVYLQMNSLKPEDTAVYYCAAASGYDYWGQGTQVTVSS | high polyreactivity
32 | QVQLVESGGGLVQAGGSLRLSCAASGIIFRVYAMGWYRQAPGKERELVASITDRGTRTYYADSVKGRFTISRDNAKNTVYLQMNSLKPEDTAVYYCADEPNYLYWGFFSVGYDYWGQGTQVTVSS | high polyreactivity
33 | QVQLVESGGGLVQAGGSLRLSCAASGIIFRVYAMGWYRQAPGKERELVATITWSGGSTFYADSVKGRFTISRDNAKNTVYLQMNSLKPEDTAVYYCAARFLWSVFGRKGGYWGQGTQVTVSS | low polyreactivity
34 | QVQLVESGGGLVQAGGSLRLSCAASGIIFRWYAMGWYRQAPGKERELVAAITRSGGSTYYADSVKGRFTISRDNAKNTVYLQMNSLKPEDTAVYYCAAEYYAPSYKFDYWGQGTQVTVSS | high polyreactivity
35 | QVQLVESGGGLVQAGGSLRLSCAASGIIFRWYAMGWYRQAPGKERELVAGITSTTGTTYYADSVKGRFTISRDNAKNTVYLQMNSLKPEDTAVYYCAADYYCYTTAGVVDSFEYWGQGTQVTVSS | low polyreactivity
36 | QVQLVESGGGLVQAGGSLRLSCAASGIIFRWYGMGWYRQAPGKERELVATITSGGRTNYADSVKGRFTISRDNAKNTGYLQMHSLKPEDTAVYYCAAARLFAMDYWGQGTQVTVSS | low polyreactivity
37 | QVQLVESGGGLVQAGGSLRLSCAASGIIFRYNAMGLYRQAPGKERELVAAISWSGGYTYYADYVKGRFTISRDNAKNTVYFQMNSLKPEDTAVYYFNAVSLSRWGGYWGQGTQVTVSS | high polyreactivity
38 | QVQLVESGGGLVQAGGSLRLSCAASGIIFRYYAMGWYIQAPGKERELVARITSGARTTYADSVKGRFTISRDNAKNTVYLQMNSLKPEDSAVYYCNAVRRYGLEYNYWGQGTQVTVSS | high polyreactivity
39 | QVQLVESGGGLVQAGGSLRLSCAASGIIFRYYAMGWYRQAPGKEREFVADISASDGSTYYADSVKGRFTISRDNAKNTVYLQMNSQKPEDTAVSYCNARKYWKYGSYQYYWGQGTEVTVSS | high polyreactivity
40 | QVQLVESGGGLVQAGGSLRLSCAASGIIFRYYAMGWYRQAPGKERELVAAISVSGGSTYDADSVKGRFTISRDNAKNTVYLQMNSLKPEDTAVYYCAARTRDFGYWGQGTQVTVSS | high polyreactivity
41 | QVQLVESGGGLVQAGGSLRLSCAASGIIFRYYARVWYRQAPGKEREFVAAINYSGGSTYYADSVKGRFTISRDTAKYSVYLQMNSLKPEDTAVYYCAARSYTYTAPIYGYWGQGTQVTVSS | high polyreactivity
42 | QVQLVESGGGLVQAGGSLRLSCAASGIIFSFYAMGWYRQAHGKERELVADITLSGGRTYYADSVKGRFTISRDNAKNTVYLQMNSLKPEDTAVYYCNADTYERGDYWGQGTQVTVSS | high polyreactivity
43 | QVQLVESGGGLVQAGGSLRLSCAASGIIFSINAMGWYRQAPGKERELVAAISRSGGSTNYADSVKGRFTISRDNAKNTVYLQMNSLKPEDTAVYYCATVHRYSVWSHNYWGQGTQVTVSS | high polyreactivity
